Assay results: the Human Domainome abundance scans (Beltran et al. 2025)
± gives the uncertainty stated by the source.

B1: Kinesin-like protein KIF16B, residues 1213 to 1273; numbered along this chain, Q96L93 (parent)
chain: ETWTVFRRYSRFREMHKTLKLKYAELAALEFPPKKLFGNKDERVIAERRSHLEKYLRDFFS

Variants of: B1
Assay: abundance fitness (aPCA) (normalised: wild type 0, dead -1); higher = more abundant; growth selection in yeast, the domain comes from the species named
Conditions: Homo sapiens
Variant ETWTVFRRYSRFREMHKTLKLKYAELAALEFPPKKLQGNKDERVIAERRSHLEKYLRDFFS has an abundance fitness of -0.476 ± 0.12. Variant ETWTVFRRYSRFREMHKTLKLKYAELAALEFPPKKLKGNKDERVIAERRSHLEKYLRDFFS has an abundance fitness of -0.189 ± 0.094. Work on ETWTVFRRYSRFREMHKTLKLKYAELAALEFPPKKLEGNKDERVIAERRSHLEKYLRDFFS yielded an abundance fitness of -0.407 ± 0.056. Variant ETWTVFRRYSRFREMHKTLKLKYAELAALEFPPKKLRGNKDERVIAERRSHLEKYLRDFFS has an abundance fitness of -0.35 ± 0.072. Work on ETWTVFRRYSRFREMHKTLKLKYAELAALEFPPKKLPGNKDERVIAERRSHLEKYLRDFFS yielded an abundance fitness of -0.573 ± 0.14. Work on ETWTVFRRYSRFREMHKTLKLKYAELAALEFPPKKLLGNKDERVIAERRSHLEKYLRDFFS yielded an abundance fitness of -0.271 ± 0.081. ETWTVFRRYSRFREMHKTLKLKYAELAALEFPPKKLCGNKDERVIAERRSHLEKYLRDFFS showed an abundance fitness of -0.631 ± 0.3. ETWTVFRRYSRFREMHKTLKLKYAELAALEFPPKKLHGNKDERVIAERRSHLEKYLRDFFS showed an abundance fitness of -0.597 ± 0.45. ETWTVFRRYSRFREMHKTLKLKYAELAALEFPPKKLAGNKDERVIAERRSHLEKYLRDFFS showed an abundance fitness of -0.451 ± 0.12. ETWTVFRRYSRFREMHKTLKLKYAELAALEFPPKKLGGNKDERVIAERRSHLEKYLRDFFS showed an abundance fitness of -0.334 ± 0.076. Work on ETWTVFRRYSRFREMHKTLKLKYAELAALEFPPKKLSGNKDERVIAERRSHLEKYLRDFFS yielded an abundance fitness of -0.446 ± 0.061. For ETWTVFRRYSRFREMHKTLKLKYAELAALEFPPKKLDGNKDERVIAERRSHLEKYLRDFFS, the abundance fitness was -0.2 ± 0.1. In the case of ETWTVFRRYSRFREMHKTLKLKYAELAALEFPPKKLIGNKDERVIAERRSHLEKYLRDFFS, the abundance fitness is reported as -0.111 ± 0.14. ETWTVFRRYSRFREMHKTLKLKYAELAALEFPGKKLFGNKDERVIAERRSHLEKYLRDFFS showed an abundance fitness of 0.279 ± 0.038. Variant ETWTVFRRYSRFREMHKTLKLKYAELAALEFPLKKLFGNKDERVIAERRSHLEKYLRDFFS has an abundance fitness of 0.366 ± 0.049. For ETWTVFRRYSRFREMHKTLKLKYAELAALEFPFKKLFGNKDERVIAERRSHLEKYLRDFFS, the abundance fitness was 0.495 ± 0.096. ETWTVFRRYSRFREMHKTLKLKYAELAALEFPQKKLFGNKDERVIAERRSHLEKYLRDFFS gave an abundance fitness of -0.429 ± 0.26. With ETWTVFRRYSRFREMHKTLKLKYAELAALEFPYKKLFGNKDERVIAERRSHLEKYLRDFFS the abundance fitness was -0.378 ± 0.24. With ETWTVFRRYSRFREMHKTLKLKYAELAALEFPEKKLFGNKDERVIAERRSHLEKYLRDFFS the abundance fitness was -0.857 ± 0.24. ETWTVFRRYSRFREMHKTLKLKYAELAALEFPAKKLFGNKDERVIAERRSHLEKYLRDFFS gave an abundance fitness of 0.047 ± 0.059. Work on ETWTVFRRYSRFREMHKTLKLKYAELAALEFPSKKLFGNKDERVIAERRSHLEKYLRDFFS yielded an abundance fitness of 0.022 ± 0.067. In the case of ETWTVFRRYSRFREMHKTLKLKYAELAALEFPTKKLFGNKDERVIAERRSHLEKYLRDFFS, the abundance fitness is reported as -0.02 ± 0.16. For ETWTVFRRYSRFREMHKTLKLKYAELAALEFPDKKLFGNKDERVIAERRSHLEKYLRDFFS, the abundance fitness was -1.07 ± 0.42. ETWTVFRRYSRFREMHKTLKLKYAELAALEFPKKKLFGNKDERVIAERRSHLEKYLRDFFS gave an abundance fitness of 0.035 ± 0.13. For ETWTVFRRYSRFREMHKTLKLKYAELAALEFPVKKLFGNKDERVIAERRSHLEKYLRDFFS, the abundance fitness was 0.17 ± 0.039. Variant ETWTVFRRYSRFREMHKTLKLKYAELAALEFPWKKLFGNKDERVIAERRSHLEKYLRDFFS has an abundance fitness of 0.322 ± 0.084. Work on ETWTVFRRYSRFREMHKTLKLKYAELAALEFPHKKLFGNKDERVIAERRSHLEKYLRDFFS yielded an abundance fitness of 0.107 ± 0.15. With ETWTVFRRYSRFREMHKTLKLKYAELAALEFPIKKLFGNKDERVIAERRSHLEKYLRDFFS the abundance fitness was 0.24 ± 0.39. With ETWTVFRRYSRFREMHKTLKLKYAELAALEGPPKKLFGNKDERVIAERRSHLEKYLRDFFS the abundance fitness was -0.862 ± 0.12. ETWTVFRRYSRFREMHKTLKLKYAELAALENPPKKLFGNKDERVIAERRSHLEKYLRDFFS showed an abundance fitness of -0.703 ± 0.2. ETWTVFRRYSRFREMHKTLKLKYAELAALEQPPKKLFGNKDERVIAERRSHLEKYLRDFFS gave an abundance fitness of -0.716 ± 0.24. In the case of ETWTVFRRYSRFREMHKTLKLKYAELAALEYPPKKLFGNKDERVIAERRSHLEKYLRDFFS, the abundance fitness is reported as -0.295 ± 0.35. Variant ETWTVFRRYSRFREMHKTLKLKYAELAALEEPPKKLFGNKDERVIAERRSHLEKYLRDFFS has an abundance fitness of -0.46 ± 0.11. Work on ETWTVFRRYSRFREMHKTLKLKYAELAALEKPPKKLFGNKDERVIAERRSHLEKYLRDFFS yielded an abundance fitness of -0.752 ± 0.35. In the case of ETWTVFRRYSRFREMHKTLKLKYAELAALETPPKKLFGNKDERVIAERRSHLEKYLRDFFS, the abundance fitness is reported as -0.949 ± 0.19. For ETWTVFRRYSRFREMHKTLKLKYAELAALERPPKKLFGNKDERVIAERRSHLEKYLRDFFS, the abundance fitness was -0.692 ± 0.09. For ETWTVFRRYSRFREMHKTLKLKYAELAALEIPPKKLFGNKDERVIAERRSHLEKYLRDFFS, the abundance fitness was -0.64 ± 0.32. Work on ETWTVFRRYSRFREMHKTLKLKYAELAALEVPPKKLFGNKDERVIAERRSHLEKYLRDFFS yielded an abundance fitness of -0.545 ± 0.079. Variant ETWTVFRRYSRFREMHKTLKLKYAELAALESPPKKLFGNKDERVIAERRSHLEKYLRDFFS has an abundance fitness of -0.699 ± 0.15. ETWTVFRRYSRFREMHKTLKLKYAELAALELPPKKLFGNKDERVIAERRSHLEKYLRDFFS showed an abundance fitness of -0.397 ± 0.12. ETWTVFRRYSRFREMHKTLKLKYAELAALEWPPKKLFGNKDERVIAERRSHLEKYLRDFFS showed an abundance fitness of 0.194 ± 0.062. In the case of ETWTVFRRYSRFREMHKTLKLKYAELAALEFNPKKLFGNKDERVIAERRSHLEKYLRDFFS, the abundance fitness is reported as 0.209 ± 0.088. With ETWTVFRRYSRFREMHKTLKLKYAELAALEFFPKKLFGNKDERVIAERRSHLEKYLRDFFS the abundance fitness was 0.329 ± 0.093.
